Reference: paper PMC9538160
pKd: −log10 of the molar value.

Target: Human recombinant p65 protein (SinoBiological 12054-H09E) (human) (UniProt Q04206)
Test: BLI; Forte-Bio Octet Red; anti-p65 Ab (5 μg/mL) captured on Protein A biosensors, 25 μg/mL recombinant p65 bound to it, ICP22 in solution at 62.5, 125, 250, 500 or 1000 nM; PBS

Chain of UniProt Q04206 (Q04206 whole entry, stated change not applied): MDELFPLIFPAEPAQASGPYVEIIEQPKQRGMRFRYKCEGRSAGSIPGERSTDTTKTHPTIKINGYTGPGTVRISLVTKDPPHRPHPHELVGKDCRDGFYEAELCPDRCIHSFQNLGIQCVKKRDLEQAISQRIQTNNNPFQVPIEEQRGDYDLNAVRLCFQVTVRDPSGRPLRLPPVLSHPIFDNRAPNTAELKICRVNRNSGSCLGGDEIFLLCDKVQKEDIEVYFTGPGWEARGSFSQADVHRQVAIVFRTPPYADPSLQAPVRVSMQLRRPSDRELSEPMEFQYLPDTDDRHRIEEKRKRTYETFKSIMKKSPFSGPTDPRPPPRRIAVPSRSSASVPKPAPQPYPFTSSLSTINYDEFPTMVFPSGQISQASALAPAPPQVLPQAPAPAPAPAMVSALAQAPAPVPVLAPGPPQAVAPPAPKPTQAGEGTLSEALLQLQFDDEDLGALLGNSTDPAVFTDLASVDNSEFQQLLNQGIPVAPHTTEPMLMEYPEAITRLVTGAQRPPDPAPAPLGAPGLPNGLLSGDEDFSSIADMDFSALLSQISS

Substance: HA-tagged HSV-2 ICP22, purified (from UniProt P14379 1-197) (natural protein)
- pKd: 6.66
